Our source for the IC50 values is patent EP1255844B1 (MILLENNIUM PHARMACEUTICALS, INC., dated 2007).

Where “and” joins values, the source holds several entries; their conditions need not be identical. Equal entries are not always repeated.

Test [1] concerns the target T1, human CC-chemokine receptor 2 (CCR2) as naturally expressed on THP-1 cells, THP-1 cell membranes, fresh human … (human, UniProt P41597 1-374).
T1 construct: whole, on cells; In one assay membranes of THP-1 cells were used instead of whole cells; also called CKR-2; MCP-1RA
In words: competition with 0.1 nM [125I]MCP-1 on THP-1 cell membranes, filtration and scintillation counting.

The target in test [2] is T1, human CC-chemokine receptor 2 (CCR2) as …. In words: competition with 0.1 nM [125I]MCP-1 on fresh human PBMC, filtration and scintillation counting.

T1 sequence (P41597 whole entry): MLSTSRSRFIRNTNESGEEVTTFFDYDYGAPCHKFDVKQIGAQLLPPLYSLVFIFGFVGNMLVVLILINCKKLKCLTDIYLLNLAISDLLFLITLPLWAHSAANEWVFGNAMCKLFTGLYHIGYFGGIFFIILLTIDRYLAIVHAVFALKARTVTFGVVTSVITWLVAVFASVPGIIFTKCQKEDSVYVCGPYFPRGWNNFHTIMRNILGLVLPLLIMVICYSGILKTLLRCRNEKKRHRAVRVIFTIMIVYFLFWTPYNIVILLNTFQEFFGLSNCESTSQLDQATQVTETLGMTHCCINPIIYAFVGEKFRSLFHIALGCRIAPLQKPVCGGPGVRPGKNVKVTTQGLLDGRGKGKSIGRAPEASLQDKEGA

B1: murine monoclonal antibody LS132.1D9 (1D9) (antibody, V domains shown)
VH: EVQLVESGGGLVQPKGSLKLSCAASGFSFNAYAMNWVRQAPGKGLEWVARIRTKNNNYATYYADSVKDRYTISRDDSESMLFLQMNNLKTEDTAMYYCVTFYGNGVWGTGTTVTVSS
VL: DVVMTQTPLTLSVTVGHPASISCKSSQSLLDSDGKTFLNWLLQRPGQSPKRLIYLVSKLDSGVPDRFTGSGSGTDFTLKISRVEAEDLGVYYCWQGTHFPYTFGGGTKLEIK
notes: Whole mouse monoclonal antibody from a hybridoma (supernatant or antibody); Kappa light chain; The controls are called isotype-matched and murine IgG2a, which implies IgG2a; also called mAb 1D9; mus-1D9
As to B1, the IC50 is ~0.004 µg/mL and ~0.02 nM in test [1]; 0.04 µg/mL and ~0.2 nM in test [2].

For orientation: IC50 means the midpoint of a concentration-inhibition curve. Read a high IC50 as a need for much substance.
